Assay results taken from article PMC9769723.

Key:
[1] = molecular target: Trichococcus flocculiformis photolyase (TfPHR), class 2 cyclobutane pyrimidine dimer (CPDII) photolyase (Trichococcus flocculiformis)
[2] = molecular target: Trichococcus flocculiformis photolyase (TfPHR), class 2 cyclobutane pyrimidine dimer (CPDII) photolyase (Trichococcus flocculiformis); assay: ITC; MicroCal ITC200; both proteins in sonication buffer (150 mM NaCl, 50 mM Tris-HCl pH 7.0) with 0.02% DDM; which protein was in the syringe is not given
[3] = molecular target: Trichococcus flocculiformis photolyase (TfPHR), class 2 cyclobutane pyrimidine dimer (CPDII) photolyase (Trichococcus flocculiformis); assay: shift of the absorption spectrum of the rhodopsin after mixing; purified TfHeR and TfPHR mixed at a 1:4 molar ratio, time-dependent absorption spectra (UV-2450 spectrometer)
[4] = molecular target: NpSRII (Natronomonas pharaonis) (UniProt P42196); settings: cited from earlier work
UniProt P42196, sequence (P42196 whole entry): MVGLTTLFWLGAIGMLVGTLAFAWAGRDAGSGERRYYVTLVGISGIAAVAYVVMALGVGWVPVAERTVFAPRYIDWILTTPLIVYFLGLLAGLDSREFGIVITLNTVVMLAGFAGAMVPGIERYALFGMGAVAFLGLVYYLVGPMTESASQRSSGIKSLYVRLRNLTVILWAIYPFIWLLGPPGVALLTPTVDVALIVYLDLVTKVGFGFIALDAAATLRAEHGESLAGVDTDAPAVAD

| Substance | in vitro repair of UV-damaged oligo(dT)20 by TfPHR under white light (absorbance at 265 nm), with TfHeR against TfPHR alone, at saturation [1] | Kd [2] | dH [2] | shift of the absorption maximum after mixing (blue shift) [3] | Kd [4] |
| --- | --- | --- | --- | --- | --- |
| Trichococcus flocculiformis heliorhodopsin (TfHeR) (natural protein) | 3 fold | 22 µM | -18.8 kcal/mol | 8 nm |  |
| NpHtrII (from UniProt P42259) |  |  |  |  | 0.65 µM |
| TfHeR E97Q mutant (natural protein) |  | 121 µM |  | 4 nm |  |
